Measurements: patent publication US20230242676A1 (KISOJI BIOTECHNOLOGY, published 2023)
Positions count from the first letter of the chain named. In names and notes the source's numbering stands.

T1: SEQ ID NO 101 (Homo sapiens (Human), UniProt P0DOX5 343-449 = IgG part)
T1 construct: also called Mutated CH3 domain of KB100 Chain B (mutations D399N, K439E, E357Q, T350V)
T1 constant: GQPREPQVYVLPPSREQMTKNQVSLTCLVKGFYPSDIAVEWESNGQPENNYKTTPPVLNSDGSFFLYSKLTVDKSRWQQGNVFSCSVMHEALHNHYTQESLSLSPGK

T2: SEQ ID NO 95 (Homo sapiens (Human), UniProt P0DOX5 343-449 = IgG part)
T2 construct: also called Mutated CH3 domain of KB118 Chain B (mutations D399N); K439E
T2 constant: T1 constant with V10T, L11R

B1: SEQ ID NO 100 (other)
constant: T1 constant with E16Q, Q17E, K30E, E99K
notes: also called Mutated CH3 domain of KB099 Chain A (mutations D399N, K370E, E356Q, T350V)
B2: SEQ ID NO 102 (other)
constant: T1 constant with V10T, P12R, E16Q, Q17E, K30E, E99K
notes: also called Mutated CH3 domain of KB105 Chain A (mutations D399N, K370E, E356Q, P352R)
B3: SEQ ID NO 103 (other)
constant: T1 constant with V10T, P12E, E16Q, Q17E, K30E, E99K
notes: also called Mutated CH3 domain of KB108 Chain A (mutations D399N, K370E, E356Q, P352E)

How the values were obtained:
SEQ ID NO 101 = molecular target: T1, SEQ ID NO 101; assay: co-expression of Chain A and Chain B vectors, SDS-PAGE and Western blot; heterodimer formation
SEQ ID NO 95 = molecular target: T2, SEQ ID NO 95; assay: as above

Row | Binder | binding result (SEQ ID NO 101) | binding result (SEQ ID NO 95)
1 | B1 | binds | –
2 | B2 | – | binds
3 | B3 | – | binds
